Where a chain is given by its changes, count along the chain named. Like-named read-outs stand apart in the source and are kept apart here.
B1: Fab 0088-Fab 0089 conjugate 9002 (bispecific antibody)
heavy 1: EVQLVESGGGLVKPGGSLRLSCAASGFTFSNYAMSWVRQTPEKRLEWVATISRSGSYSYFPDSVQGRFTISRDNAKNSLYLQMNSLRAEDTAVYYCARLGGYDEGDAMDSWGQGTTVTVSSASTKGPSVFPLAPCSRSTSESTAALGCLVKDYFPEPVTVSWNSGALTSGVHTFPAVLQSSGLYSLSSVVTVPSSSLGTKTYTCNVDHKPSNTKVDKRVESKYGPPC
light 1: DIVMTQTPLSLSVTPGQPASISCKSSQSLLESDGKTYLNWYLQKPGQSPQLLIYLVSILDSGVPDRFSGSGSGTDFTLKISRVEAEDVGVYYCLQATHFPQTFGGGTKVEIKRTVAAPSVFIFPPSDEQLKSGTASVVCLLNNFYPREAKVQWKVDNALQSGNSQESVTEQDSKDSTYSLSSTLTLSKADYEKHKVYACEVTHQGLSSPVTKSFNRGEC
heavy 2: QVQLQQSGAELVKPGASVKLSCKASGYTFISYYMYWVKQRPGQGLEWIGEINPSNGDTNLNEKFKSKATLTVDKSSSTVYMQLSSLTSEDSAVYYCTRWDRFDGFVYWGQGTLVTVSAASTKGPSVFPLAPCSRSTSESTAALGCLVKDYFPEPVTVSWNSGALTSGVHTFPAVLQSSGLYSLSSVVTVPSSSLGTKTYTCNVDHKPSNTKVDKRVESKYGPPC
light 2: ETTVTQSPASLSMAIGGKVTIRCIISTNIDDDINWYQQKPGEPPKLLISEGNTLRPGVPSRFSSSGYGTDFVFTIENMLSEDVADYYCLQSDDLPYTFGGGTKLEIKRTVAAPSVFIFPPSDEQLKSGTASVVCLLNNFYPREAKVQWKVDNALQSGNSQESVTEQDSKDSTYSLSSTLTLSKADYEKHKVYACEVTHQGLSSPVTKSFNRGEC
modifications: C-terminal cysteine coupled through the bis-maleimide linker to the Fab 0088 heavy chain; C-terminal cysteine coupled through 1,16-N,N'-bis(maleimido)-4,13-diaza-7,10-dioxa-3,14-dioxohexadecane to the C-terminal cysteine of the Fab 0089 heavy chain
B2: Fab 0094-Fab 0089 conjugate 9004 (bispecific antibody)
heavy 1: B1 heavy 1 with T40A, E42G, R44G, A49S, F60Y, Q65K
light 1: B1 light 1
heavy 2: B1 heavy 2
light 2: B1 light 2
modifications: C-terminal cysteine coupled through the bis-maleimide linker to the Fab 0094 heavy chain; C-terminal cysteine coupled through 1,16-N,N'-bis(maleimido)-4,13-diaza-7,10-dioxa-3,14-dioxohexadecane to the C-terminal cysteine of the Fab 0089 heavy chain
B3: mAb 2021 (antibody, human IgG4 S228P, kappa, V domains shown)
VH: EVQLVESGGGLVKPGGSLRLSCAASGFTFSNYAMSWVRQTPEKRLEWVATISRSGSYSYFPDSVQGRFTISRDNAKNSLYLQMNSLRAEDTAVYYCARLGGYDEGDAMDSWGQGTTVTVSS
VL: DIVMTQTPLSLSVTPGQPASISCKSSQSLLESDGKTYLNWYLQKPGQSPQLLIYLVSILDSGVPDRFSGSGSGTDFTLKISRVEAEDVGVYYCLQATHFPQTFGGGTKVEIKR
B4: Fab 0088 (Fab fragment of mAb 2021) (Fab, V domains shown)
VH: B3 VH
VL: B3 VL
B5: Fab 0313 (Fab fragment of mAb 2000) (Fab, V domains shown)
VH: B3 VH with T40A, E42G, R44G, A49S, F60Y, P61A, Q65K
VL: B3 VL
B6: Fab 0094 (Fab fragment of mAb 2007) (Fab, V domains shown)
VH: B3 VH with T40A, E42G, R44G, A49S, F60Y, Q65K
VL: B3 VL

Legend:
[1] = biological target: EA.hy926 cell surface associated TFPI (human) (UniProt P10646)
[2] = biological target: EA.hy926 cell surface associated TFPI (human) (UniProt P10646); test: flow cytometry on EA.hy926 cells, APC anti-human IgG secondary, median fluorescence intensity
[3] = biological target: EA.hy926 cell surface associated TFPI (human) (UniProt P10646); remark: listed apart in the source

Row | Binder | EC50 (read off the curve) [1] | EC50 [2] | EC50 (read off the curve) [3]
1 | B1 | 2 nM | 0.33 nM | –
2 | B2 | – | 6.9 nM | –
3 | B3 | – | 0.11 nM | 1 nM
4 | B4 | – | 0.31 nM | –
5 | B5 | – | 25.9 nM | –
6 | B6 | – | 3.8 nM | –

— patent US20180208675A1
